Key:
[1] = molecular target: T1, partial ACTH peptide (positions 1 to 24 of ACTH) (Homo sapiens, UniProt P01189); assay: Turbidity (OD550) measurement and Hill plot analysis of albumin reagents mixed with partial ACTH peptide; format: binding
T1 construct: consisting of the amino acids of positions 1 to 24 of ACTH
Protocol: BSA (Sigma-Aldrich) was dissolved in Milli-Q® water (Millipore) to prepare a BSA solution (1.0 w/v %). The BSA solution was divided into two and one was designated as a non-denatured BSA solution and the other was autoclaved at 110° C. for 15 minutes to obtain a heat-denatured BSA solution.
A partial ACTH peptide (Peptide Institute, Inc.) consisting of the amino acids of positions 1 to 24 of ACTH was used as the basic peptide of interest. The peptide was dissolved in ultrapure water to prepare a sample containing the basic peptide of interest (1.0 mg/ml).
The heat-denatured BSA solution prepared in the above (1) (50 μl) was mixed with the sample prepared in (2) followed by addition of ultrapure water to prepare a total volume of 250 μl of a mixed solution (final concentration of heat-denatured BSA: 0.2 w/v %). In this preparation, the sample was mixed so as to obtain a final concentration of the partial ACTH peptide in the mixed solution of 0 to 150 μM. A comparative mixed solution was also prepared in the similar manner except that the non-denatured BSA solution was used instead of the heat-denatured BSA solution.
The thus-prepared mixed solutions were measured for absorbance at the wavelength of 550 nm (OD550) in a spectrophotometer UV-2500PC (Shimadzu Corporation). The obtained results were subjected to Hill plot analysis with KaleidaGraph (HULINKS, Inc.) to calculate the values of Kd and the Hill coefficient of heat-denatured BSA and non-denatured BSA.
BSA (Sigma-Aldrich) was dissolved in Milli-Q® water (Millipore) to prepare a BSA solution (1.0 w/v %). The BSA solution was divided into five aliquots among which one was designated as a non-denatured BSA solution (heat denaturation period: 0 min) and the rest of four were heated in an autoclave at 110° C. for 5, 15, 60 and 120 min, respectively, to obtain heat-denatured BSA solutions.
The Kd value and Hill coefficient of BSA at respective heat denaturation periods were calculated. […]
The Kd value and Hill coefficient were calculated for the mixed solutions. […]

partial ACTH peptide [2] = molecular target: T2, partial ACTH peptide (Homo sapiens, UniProt P01189); assay: Detection capacity (turbidity, OD550) at various final concentrations of reagent for detection; set-up: key: “Y” denotes turbidity appearing; “N” does the absence of turbidity
T2 construct: consisting of amino acids of positions 1 to 24 of ACTH; purchased Biologica Co
T2 sequence (P01189 138-161): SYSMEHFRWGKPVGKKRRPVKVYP
Protocol: BSA (Sigma-Aldrich) was dissolved in ultrapure water to prepare a BSA solution (5.0 w/v %). The BSA solution was heated in an autoclave at 115° C. for 15 minutes to obtain a heat-denatured BSA solution.
A partial ACTH peptide consisting of amino acids of positions 1 to 24 of ACTH (Biologica Co.) was used as the basic peptide of interest. The peptide was dissolved in ultrapure water to prepare a sample containing the basic peptide of interest (1.0 mg/ml).
The heat-denatured BSA solution prepared in (1) was mixed with 30 μl or 60 μl of the sample prepared in (2) followed by addition of ultrapure water to prepare a total volume of 250 μl of mixed solutions. In the preparation, the reagent for detection (solution of heat-denatured BSA) was mixed with the respective samples so as to obtain a final concentration of the reagent for detection in the mixed solution of 0.1 to 5%.
The thus-prepared mixed solutions were measured for values of absorbance at the wavelength of 550 nm (OD550) with a spectrophotometer UV-2500PC (Shimadzu Corporation). The results obtained are summarized in Table 6, where “Y” denotes turbidity appearing and “N” does the absence of turbidity.

partial ACTH peptide [3] = molecular target: T2, partial ACTH peptide; assay: OD550 Hill plot analysis in serum-based solution versus control solution; format: binding
Protocol: The peptide was dissolved in ultrapure water and mixed with serum collected from a healthy volunteer in USA (person) (SUNFCO) to prepare the serum-based sample containing the basic peptide of interest. The serum-based samples were prepared so as to adjust the final concentrations of the partial ACTH peptide and serum as shown in (3) below.
The denatured BSA solution prepared in the above (1) (50 μl) was mixed with the sample prepared in (2) followed by addition of ultrapure water to prepare a total volume of 250 μl of mixed solution containing serum (hereinafter referred to as “serum-based solution”). In the preparation, the serum-based sample was mixed so as to adjust a final concentration of the partial ACTH peptide of to 0 to 80 μM and adjust a final concentration of serum of to an equivalent to 100-fold dilution in the mixed solution. For a control, a mixed solution was also prepared without serum (hereinafter referred to as “control solution”).
The thus-prepared mixed solutions were measured for absorbance at the wavelength of 550 nm (OD550) with a spectrophotometer UV-2500PC (Shimadzu Corporation).
OD=(peptide concentration)^n/[(peptide concentration)^n+[Kd×(1+CHSA/Ki)]^n]

partial ACTH peptide [4] = molecular target: T2, partial ACTH peptide; assay: OD550 detection of basic peptide concentrated by OFFGEL fractionation from serum-containing specimen; conditions: Heat-denatured BSA: Yes; concentrated partial ACTH peptide fraction after OFFGEL fractionation, MES-HCl buffer pH 5.0
Protocol: A partial ACTH peptide consisting of amino acids of positions 1 to 24 of ACTH (Biologica Co.) was used as the basic peptide of interest. The peptide was dissolved in ultrapure water and mixed with serum of a healthy USA subject (SUNFCO) to prepare an actual serum sample containing the basic peptide of interest. The sample was prepared so as to obtain the concentrations of the partial ACTH peptide and serum as shown in (3) below.
(3) Preparation of sample solution containing concentrated basic peptide of interest. A glycerol solution (Agilent technologies; 6 ml) and an OFFGEL Buffer solution (Agilent technologies; 600 μl) were mixed followed by addition of ultrapure water to prepare a total volume of 50 ml of peptide buffer solution (×1.25), the pH of which is 3-10. This solution was mixed with the sample of the above (2) to prepare a peptide buffer solution (×1) with the concentration of 20 μM of the partial ACTH peptide and the concentration equivalent to 1000-fold dilution of serum. This solution was fractionated with using a High Resolution IPG gel for fraction whose pH is pH 3-10 on the OFFGEL fractionator (Agilent Technologies). […]
The thus-prepared mixed solutions were measured for absorbance at the wavelength of 550 nm (OD550) in a spectrophotometer UV-2500PC (Shimadzu Corporation).

[5] = Example 1, final BSA 0.2 w/v %, peptide 0 to 150 μM, OD550 Hill plot
[6] = Nucleic acid: Yes (salmon sperm DNA, final 10 μM)
[7] = heat denaturation period 5 min at 110° C.
[8] = heat denaturation period 15 min at 110° C.
[9] = heat denaturation period 60 min at 110° C.
[10] = heat denaturation period 120 min at 110° C.
[11] = Control solution (without serum)
[12] = Serum solution (serum equivalent to 100-fold dilution)

- Hill coefficient n [1, 5]: 8
- Kd [1, 5]: 30 µM
- Hill coefficient n ([1]; Nucleic acid: No): 11
- Kd ([1]; Nucleic acid: No): 40 µM
- Hill coefficient n [1, 6]: 8
- Kd [1, 6]: 30 µM
- Hill coefficient n [1, 7]: 5
- Kd [1, 7]: 33 µM
- Hill coefficient n [1, 8]: 8
- Kd [1, 8]: 30 µM
- Hill coefficient n [1, 9]: 6
- Kd [1, 9]: 28 µM
- Hill coefficient n [1, 10]: 4
- Kd [1, 10]: 33 µM
- Detection capacity (in the case of 30 μM peptide) (partial ACTH peptide [2]; final conc. of reagent 0.1 %): Y
- Detection capacity (in the case of 60 μM peptide) (partial ACTH peptide [2]; final conc. of reagent 0.1 %): Y
- Detection capacity (in the case of 30 μM peptide) (partial ACTH peptide [2]; final conc. of reagent 0.2 %): Y
- Detection capacity (in the case of 60 μM peptide) (partial ACTH peptide [2]; final conc. of reagent 0.2 %): Y
- Detection capacity (in the case of 30 μM peptide) (partial ACTH peptide [2]; final conc. of reagent 0.4 %): Y
- Detection capacity (in the case of 60 μM peptide) (partial ACTH peptide [2]; final conc. of reagent 0.4 %): Y
- Detection capacity (in the case of 30 μM peptide) (partial ACTH peptide [2]; final conc. of reagent 0.5 %): Y
- Detection capacity (in the case of 60 μM peptide) (partial ACTH peptide [2]; final conc. of reagent 0.5 %): Y
- Detection capacity (in the case of 30 μM peptide) (partial ACTH peptide [2]; final conc. of reagent 0.7 %): Y
- Detection capacity (in the case of 60 μM peptide) (partial ACTH peptide [2]; final conc. of reagent 0.7 %): Y
- Detection capacity (in the case of 30 μM peptide) (partial ACTH peptide [2]; final conc. of reagent 1.0 %): Y
- Detection capacity (in the case of 60 μM peptide) (partial ACTH peptide [2]; final conc. of reagent 1.0 %): Y
- Detection capacity (in the case of 30 μM peptide) (partial ACTH peptide [2]; final conc. of reagent 5.0 %): Y
- Detection capacity (in the case of 60 μM peptide) (partial ACTH peptide [2]; final conc. of reagent 5.0 %): Y
- Hill coefficient n (partial ACTH peptide [3]; [11]): 4
- Kd (partial ACTH peptide [3]; [11]): 25 µM
- Hill coefficient n (partial ACTH peptide [3]; [12]): 3.4
- Kd (partial ACTH peptide [3]; [12]): 29 µM
- OD550 (partial ACTH peptide [4]): 0.03
Substance: Heat-denatured BSA: BSA solution (1.0 w/v %) in Milli-Q water autoclaved at 110° C. for 15 minutes; reagent for detection
- change in OD550 with increasing partial ACTH peptide concentration ([1]; albumin reagent mixed with partial ACTH peptide): increased in a concentration dependent manner

Reference: US10119980B2, “Method for detection of basic peptide and reagent for detection of basic peptide” (SYSMEX CORPORATION, priority 2009, dated 2018)
